Patent US20190359687A1 (Bayer, published 2019)
Changes are numbered by the printed parent chain.

B1: Hu6C12-12 (antibody, V domains shown)
VH: EVQLVQSGAEVKKPGASVKVSCKASGYTFTTYTIHWVRQAPGQGLEWMGYINPSSDYTRYNPKFKDRVTMTTDTSTSTAYMELRSLRSDDTAVYYCQTGTRDYWGQGTTVTVSS
VL: DIQLTQSPSFLSASVGDRVTITCSAASSVSYIYWYQQKPGKAPKLLIYSTSTLPSGVPSRFSGSGSGTEYTLTISSLQPEDFATYYCHQRNSFPFTFGQGTKLEIK
notes: IgG format; VH.1c + Vk.1a
B2: Hu6C12-15 (antibody, V domains shown)
VH: B1 VH with M70L
VL: B1 VL
notes: IgG format; VH.1f + Vk.1a
B3: Hu6C12-21 (antibody, V domains shown)
VH: B1 VH with M70L, T98R
VL: B1 VL with Y35F
notes: IgG format; VH.1d + Vk.1b
B4: Hu6C12-5 (antibody, V domains shown)
VH: B1 VH with M70L, Q97A
VL: B1 VL with Y70F
notes: IgG format; VH.1e + Vk.1
B5: Hu6C12-16 (antibody, V domains shown)
VH: B1 VH with M48I, M70L, T74K
VL: B1 VL
notes: IgG format; VH.1g + Vk.1a
B6: Hu6C12-19 (antibody, V domains shown)
VH: B1 VH with Q97A
VL: B1 VL with Y35F
notes: IgG format; VH.1b + Vk.1b

Each binder was assayed against T1, Cynomolgus monkey glycophorin A on Cynomolgus monkey red blood cells (Cynomolgus monkey) (assay: FACS, RBC Cy01).
T1 construct: whole, on cells; also called Cyno RBC; Cyno GPA
Experimental: (§1) The binding of the humanized variants to intact red blood cells (RBC) from humans (Hu01 to 03; 3 individuals), Rhesus monkey (Rh01 to 03; 3 individuals) and Cynomolgus monkey (Cy01 to 02; 2 individuals) was measured by fluorescence activated cell sorting (FACS).
In the case of B1, the fluorescence intensity is reported as 959.
With B2 the fluorescence intensity was 1010.
Work on B3 yielded a fluorescence intensity of 908.
B4 was tested, and the fluorescence intensity was 1070.
With B5 the fluorescence intensity was 1270.
For B6, the fluorescence intensity was 1040.

Each binder was assayed against T2, human glycophorin A in the red blood cell membrane (human, UniProt P02724 20-150) (assay: FACS, RBC Hu03).
T2 construct: whole, on cells; used for intact RBC, isolated RBC membranes and transfected cells; the assay field tells which; also called GPA; hGPA
T2 sequence (looked up): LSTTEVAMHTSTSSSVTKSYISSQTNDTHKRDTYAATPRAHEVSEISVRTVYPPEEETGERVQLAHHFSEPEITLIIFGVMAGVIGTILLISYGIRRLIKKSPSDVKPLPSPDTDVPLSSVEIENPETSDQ
Experimental: as §1
B1 showed a fluorescence intensity of 484.
B2 gave a fluorescence intensity of 482.
Binder B4 has a fluorescence intensity of 758.
B5 was tested, and the fluorescence intensity was 786.
For B6, the fluorescence intensity was 1440.

What follows are binders tested against T2, human glycophorin A in the red blood … (assay: FACS, RBC Hu01).
Experimental: as §1
Work on B1 yielded a fluorescence intensity of 646.
B2 showed a fluorescence intensity of 590.
Binder B4 has a fluorescence intensity of 921.
B5 gave a fluorescence intensity of 895.
In the case of B6, the fluorescence intensity is reported as 1630.

The binders below were run against T3, Rhesus monkey glycophorin A on Rhesus monkey red blood cells (Rhesus monkey, UniProt A0A1D5Q349 20-150) (assay: FACS, RBC Rh03).
T3 construct: whole, on cells; also called Rhesus RBC; monkey GPA
T3 sequence: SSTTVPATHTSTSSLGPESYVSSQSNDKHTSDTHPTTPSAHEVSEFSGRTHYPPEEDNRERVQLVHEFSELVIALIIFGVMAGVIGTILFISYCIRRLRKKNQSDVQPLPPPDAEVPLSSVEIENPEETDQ
Experimental: as §1
B1 was tested, and the fluorescence intensity was 1410.
With B2 the fluorescence intensity was 1490.
For B3, the fluorescence intensity was 1340.
With B4 the fluorescence intensity was 1560.
For B5, the fluorescence intensity was 1870.
B6 was tested, and the fluorescence intensity was 1520.

What follows are binders tested against T3, Rhesus monkey glycophorin A on Rhesus … (assay: FACS, RBC Rh01).
Experimental: as §1
B1 was tested, and the fluorescence intensity was 1480.
In the case of B2, the fluorescence intensity is reported as 1520.
B3 showed a fluorescence intensity of 1470.
In the case of B4, the fluorescence intensity is reported as 1660.
In the case of B5, the fluorescence intensity is reported as 2000.
Binder B6 has a fluorescence intensity of 1620.

What follows are binders tested against T3, Rhesus monkey glycophorin A on Rhesus … (assay: FACS, RBC Rh02).
In the case of B1, the fluorescence intensity is reported as 1400.
Work on B2 yielded a fluorescence intensity of 1480.
B3 gave a fluorescence intensity of 1330.
Work on B4 yielded a fluorescence intensity of 1550.
Binder B5 has a fluorescence intensity of 1860.
With B6 the fluorescence intensity was 1510.

These binders were tested against T2, human glycophorin A in the red blood … (assay: FACS, RBC Hu02).
Experimental: as §1
B1 was tested, and the fluorescence intensity was 393.
With B2 the fluorescence intensity was 375.
Binder B4 has a fluorescence intensity of 625.
In the case of B5, the fluorescence intensity is reported as 637.
B6 showed a fluorescence intensity of 1270.

The binders below were run against T1, Cynomolgus monkey glycophorin A on … (assay: FACS, RBC Cy02).
Experimental: as §1
In the case of B1, the fluorescence intensity is reported as 1030.
In the case of B2, the fluorescence intensity is reported as 1070.
With B3 the fluorescence intensity was 1120.
B4 gave a fluorescence intensity of 1140.
Work on B5 yielded a fluorescence intensity of 1360.
B6 gave a fluorescence intensity of 1240.

These binders were tested against T4, purified human glycophorin A protein (Sigma, cat # G5017) (human, UniProt P02724 20-150) (assay: ELISA, IgG).
T4 construct: mature; also called Sigma hGPA; Sigma GPA
T4 sequence (looked up): T2 sequence (looked up)
B1 gave an EC50 of 10.4 nM.
B2 gave an EC50 of 9.69 nM.
B4 showed an EC50 of 8.45 nM.
With B5 the EC50 was 4.8 nM.
B6 gave an EC50 of 0.876 nM.
